B1: TRIM9 (parent)
chain: CVQCKMPVCYQCLEEGKHSSHEVK
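Note: lentivirally expressed fusions sorted by FACS into six bins by GFP to DsRed ratio, PSI derived from sequencing read proportions per bin multiplied by bin number.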

The data set covers variants of B1. Description: protein stability index of a GFP-peptide fusion (GPS, HEK-293T) (PSI 1-6); higher = more stable. The conditions noted are these: c terminus: a fixed tail appended.
Turning to CVQCKMPPCYQCLEEGKHSSHEVK, the protein stability index turned out to be 3.61. For CVQCKMPDCYQCLEEGKHSSHEVK, the protein stability index is 4.21.

Regarding CVQCKMPWCYQCLEEGKHSSHEVK, the protein stability index turned out to be 3.76. The figure for CVQCKMPRCYQCLEEGKHSSHEVK is 3.75; for CVQCKMPSCYQCLEEGKHSSHEVK it is 4.53. On to CVQCKMPACYQCLEEGKHSSHEVK, for which the protein stability index is 4.13.

As for CVQCKMPLCYQCLEEGKHSSHEVK, the protein stability index stood at 3.65. Consider CVQCKMPVCYQCLEEGIHSSHEVK, for which the protein stability index stood at 3.61. The figure for CVQCKMPVCYQCLEEGAHSSHEVK is 4.14; for CVQCKMPVCYQCLEEGGHSSHEVK it is 4.38; for CVQCKMPVCYQCLEEGPHSSHEVK it is 3.75. The result for CVQCKMPVCYQCLEEGNHSSHEVK reads 3.65; that for CVQCKMPVCYQCLEEGLHSSHEVK, 3.86. The figure for YVQCKMPVCYQCLEEGKHSSHEVK is 1.74; for IVQCKMPVCYQCLEEGKHSSHEVK it is 3.08. On to NVQCKMPVCYQCLEEGKHSSHEVK, for which the protein stability index was 2.79. The result for LVQCKMPVCYQCLEEGKHSSHEVK reads 3.27.

For the variant MVQCKMPVCYQCLEEGKHSSHEVK, the protein stability index was determined as 2.93.

With WVQCKMPVCYQCLEEGKHSSHEVK, the protein stability index amounted to 2.98.

Take EVQCKMPVCYQCLEEGKHSSHEVK: the protein stability index is 3.95. The result for RVQCKMPVCYQCLEEGKHSSHEVK reads 3.58. In the case of VVQCKMPVCYQCLEEGKHSSHEVK, the protein stability index amounted to 3.23. The figure for CVQCKMPVCYQCLEEGKHSSAEVK is 3.15; for CVQCKMPVCYQCLEEGKHSSSEVK it is 3.54.

In the case of CVQCKMPVCYQCLEEGKHSSWEVK, the protein stability index was 2.96. Turning to CVQCKMPVCYQCLEEGKHSSFEVK, the protein stability index is 2.88. Turning to CVQCKMPVCYQCLEEGKHSSKEVK, the protein stability index was 3.76. The figure for CVQCKMPVCYQCLEEGKHSSNEVK is 3.75; for CVQCKMPVCYQCLEEGKHSSCEVK it is 4.1; for CVQCKMPVCYQCLEEGKHSSREVK it is 3.36.

In the case of CVQCKMPVCYQCLEEGKHSSGEVK, the protein stability index is 4.16. The result for CVQCKMPVCYQCLEEGKHSSEEVK reads 4.57; that for CVQCKMPVCYQCLEEGKHSSVEVK, 4.05. The result for CVQCKYPVCYQCLEEGKHSSHEVK reads 3.79; that for CVQCKEPVCYQCLEEGKHSSHEVK, 4.37; that for CVQCKRPVCYQCLEEGKHSSHEVK, 4.17. The figure for CVQCKDPVCYQCLEEGKHSSHEVK is 4.71; for CVQCKKPVCYQCLEEGKHSSHEVK it is 4.46. In the case of CVQCKFPVCYQCLEEGKHSSHEVK, the protein stability index came to 3.89. The figure for CVQCKSPVCYQCLEEGKHSSHEVK is 4.97. The figure for CVQCKIPVCYQCLEEGKHSSHEVK is 3.4; for CVQCKMPVCYQCLEEGKHSSHIVK it is 3.8; for CVQCKMPVCYQCLEEGKHSSHCVK it is 4.27. The figure for CVQCKMPVCYQCLEEGKHSSHAVK is 3.57; for CVQCKMPVCYQCLEEGKHSSHFVK it is 3.56; for CVQCKMPVCYQCLEEGKHSSHLVK it is 3.74. Regarding CVQCKMPVCYQCLEEGKHSSHMVK, the protein stability index worked out at 3.65. The result for CVQCKMPVCYQCLEEGKHSSHQVK reads 2.73; that for CVQCKMPVCYQCKEEGKHSSHEVK, 4.53; that for CVQCKMPVCYQCVEEGKHSSHEVK, 4.45. The result for CVQCKMPVCYQCTEEGKHSSHEVK reads 3.08; that for CVQCKMPVCYQCSEEGKHSSHEVK, 4.7. The figure for CVQCKMPVCYQCLEEGKHSSHEVL is 3.8; for CVQCKMPVCYQCLEEGKHSSHEVQ it is 3.96. For CVQCKMPVCYQCLEEGKHSSHEVR, the protein stability index stood at 3.46. The figure for CVQCKMPVCYQCLEEGKHSSHEVW is 2.88.

Consider CVQCKMPVCYQCLEEGKHSSHEVP, for which the protein stability index was 3.62. The result for CVQCKMPVCYQCLEEGKHSSHEVT reads 3.7. The figure for CVQCKMPVCYQCLEEGKHSSHEVA is 4.28; for CVQCKMPVCYQCLEEGKHSSHEVH it is 3.92. The figure for CVQCKMPVCYQCLEEGKHSSHEVD is 4.73; for CVQCNMPVCYQCLEEGKHSSHEVK it is 4.04.

With CVQCSMPVCYQCLEEGKHSSHEVK, the protein stability index stood at 3.9. Take CVQCTMPVCYQCLEEGKHSSHEVK: the protein stability index came out at 3.38.

CVQCMMPVCYQCLEEGKHSSHEVK: the protein stability index was 3.87. With CVQCVMPVCYQCLEEGKHSSHEVK, the protein stability index worked out at 2.41. The result for CVQCIMPVCYQCLEEGKHSSHEVK reads 2.05; that for CVQCGMPVCYQCLEEGKHSSHEVK, 4.38. The figure for CVQCRMPVCYQCLEEGKHSSHEVK is 4.15. Consider CVQCAMPVCYQCLEEGKHSSHEVK, for which the protein stability index was determined as 3.4. The figure for CVQCKMPVCYQCLNEGKHSSHEVK is 3.66. Regarding CVQCKMPVCYQCLVEGKHSSHEVK, the protein stability index amounted to 3.34. CVQCKMPVCYQCLPEGKHSSHEVK: the protein stability index turned out to be 3.75. The result for CVQCKMPVCYQCLYEGKHSSHEVK reads 3.15. Take CVQCKMPVCYQCLQEGKHSSHEVK: the protein stability index came out at 4.17.

CVQCKMPVCYQCLAEGKHSSHEVK: the protein stability index is 3.12. For the variant CVQCKMPVCYQCLLEGKHSSHEVK, the protein stability index came out at 2.93. The figure for CVQCKMPVCYQCLREGKHSSHEVK is 3.83; for CVQCKMPVCYQCLKEGKHSSHEVK it is 3.99; for CVQCKMPVCYQCLEIGKHSSHEVK it is 3.82. On to CVQCKMPVCYQCLELGKHSSHEVK, for which the protein stability index was determined as 3.65. The figure for CVQCKMPVCYQCLEHGKHSSHEVK is 3.36; for CVQCKMPVCYQCLEDGKHSSHEVK it is 4.07; for CVQCKMPVCYQCLESGKHSSHEVK it is 3.81.

Turning to CVQCKMPVCYQCLEVGKHSSHEVK, the protein stability index was 3.47.

Take CVQCKMPVCYQCLEEFKHSSHEVK: the protein stability index worked out at 3.73. The figure for CVQCKMPVCYQCLEEQKHSSHEVK is 2.64; for CVQCKMPVCYQCLEETKHSSHEVK it is 3.83. The figure for CVQCKMPVCYQCLEESKHSSHEVK is 3.7; for CVQCKMPVCYQCLEEWKHSSHEVK it is 2.8.

For the variant CVQCKMPVCYQCLEEDKHSSHEVK, the protein stability index came out at 4.58. The result for CVQCKMPVCYQCLEEMKHSSHEVK reads 3.71.

On to CVQCKMPVCYQCLEEEKHSSHEVK, for which the protein stability index stood at 3.94. Take CVQCKMPVCYQCLEEPKHSSHEVK: the protein stability index worked out at 3.9.

For the origin of these results see the supplement of paper PMC10567573.
